Results published in publication PMC11784016.

Legend:
Assay in all cases: co-IP; 293T cells co-transfected; 400 ug of cell lysate on anti-HA magnetic beads with RNaseA (50 ug/mL), 2 h at 4 C; co-IP buffer 50 mM Tris-Cl pH 7.4, 1% Nonidet-P40, 10% glycerol, 150 mM NaCl; immunoblot with anti-HA and anti-V5 or anti-Flag; band intensities normalised to the immunoprecipitated protein, full-length protein set to 100%
[1] = biological target: APOBEC3G with C-terminal triple HA tag (pcDNA3.1-APOBEC3G-HA) (human) (UniProt Q9HC16)
[2] = biological target: APOBEC3F-HA (pcDNA3.1 A3F-HA) (human) (UniProt Q8IUX4)
[3] = biological target: APOBEC3G N-terminal domain, HA-tagged (pcDNA3.1 A3G NTD-HA) (human)
[4] = biological target: APOBEC3F N-terminal domain, HA-tagged (pcDNA3.1 A3F NTD-HA) (human)
Sequence of APOBEC3F N-terminal domain, HA-tagged (pcDNA3.1 A3F NTD-HA) (human) (Q8IUX4 whole entry, the tested form may be a part): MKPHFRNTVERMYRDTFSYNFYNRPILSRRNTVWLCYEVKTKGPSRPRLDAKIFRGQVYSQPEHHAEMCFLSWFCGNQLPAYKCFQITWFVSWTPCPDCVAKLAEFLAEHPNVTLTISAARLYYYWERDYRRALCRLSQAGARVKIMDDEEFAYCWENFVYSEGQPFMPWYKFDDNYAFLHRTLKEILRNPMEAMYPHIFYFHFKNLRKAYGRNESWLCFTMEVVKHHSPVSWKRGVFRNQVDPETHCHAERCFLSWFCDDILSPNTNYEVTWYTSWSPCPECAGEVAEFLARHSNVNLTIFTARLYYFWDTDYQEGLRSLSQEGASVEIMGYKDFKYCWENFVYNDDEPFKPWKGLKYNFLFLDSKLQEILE

Sequence of APOBEC3G N-terminal domain, HA-tagged (pcDNA3.1 A3G NTD-HA) (human) (Q9HC16 whole entry, the tested form may be a part): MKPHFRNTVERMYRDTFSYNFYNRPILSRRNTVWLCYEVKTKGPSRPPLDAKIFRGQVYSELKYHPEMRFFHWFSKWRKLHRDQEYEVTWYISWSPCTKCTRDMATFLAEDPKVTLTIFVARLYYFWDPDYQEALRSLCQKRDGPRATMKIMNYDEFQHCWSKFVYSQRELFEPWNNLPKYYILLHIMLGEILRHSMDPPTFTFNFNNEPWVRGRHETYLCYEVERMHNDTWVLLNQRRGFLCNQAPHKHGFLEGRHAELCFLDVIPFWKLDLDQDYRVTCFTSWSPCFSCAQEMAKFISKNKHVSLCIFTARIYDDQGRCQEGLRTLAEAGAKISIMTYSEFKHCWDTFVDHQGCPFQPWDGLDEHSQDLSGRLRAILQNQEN

Work on “APOBEC3F C-terminal domain, Flag-tagged (pcDNA3.1 A3F CTD-Flag) (domain or fragment)” yielded a fold less immunoprecipitated than full-length A3F and A3F NTD [1] of 17 fold.
Work on “APOBEC3G C-terminal domain, Flag-tagged (A3G CTD-Flag) (domain or fragment)” yielded a fold by which full-length A3G in the co-IP exceeded this construct [2] of 42 fold.
Substance “APOBEC3F N-terminal domain, Flag-tagged (pcDNA3.1 A3F NTD-Flag) (domain or fragment)” has a fold more immunoprecipitated than full-length A3F [3] of 7 fold.
With “APOBEC3G N-terminal domain, Flag-tagged (pcDNA3.1 A3G NTD-Flag) (domain or fragment)” the fold less in the co-IP than the full-length protein [4] was 1000 fold and the fold by which full-length A3G in the co-IP exceeded this construct [2] was 6 fold.
